Each block holds one substance with its values, some of them ahead of it. Bridges are numbered along the chain shown (N, C = ends). Where no end group is shown, it is not given here. [ ]: non-standard residue; d: D form.
Tests used:
AT2 receptor = target: T1, AT2 receptor (Homo sapiens, UniProt P50052); assay: Inhibition of peptide-induced ERK phosphorylation by AT2 receptor antagonist PD123319 in HBE cells; type: cell-based; conditions: for inhibition of peptide-induced ERK1 phosphorylation by PD123319 / inhibition of peptide-induced ERK2 phosphorylation by PD123319 / inhibition of peptide-induced ERK phosphorylation (ERK1 and ERK2) by PD123319 / inhibition of peptide-induced (total) Erk phosphorylation by PD123319: 20 min preincubation with 10^-6 M PD123319, peptide 10^-6 M
T1 construct: stimulate extracellular-signal-regulated kinase (ERK) phosphorylation in human bronchial epithelial (HBE) cells; endogenous in cells; host or cells: HBE (immortal human bronchial epithelial cell line)
T1 sequence (P50052 1-363): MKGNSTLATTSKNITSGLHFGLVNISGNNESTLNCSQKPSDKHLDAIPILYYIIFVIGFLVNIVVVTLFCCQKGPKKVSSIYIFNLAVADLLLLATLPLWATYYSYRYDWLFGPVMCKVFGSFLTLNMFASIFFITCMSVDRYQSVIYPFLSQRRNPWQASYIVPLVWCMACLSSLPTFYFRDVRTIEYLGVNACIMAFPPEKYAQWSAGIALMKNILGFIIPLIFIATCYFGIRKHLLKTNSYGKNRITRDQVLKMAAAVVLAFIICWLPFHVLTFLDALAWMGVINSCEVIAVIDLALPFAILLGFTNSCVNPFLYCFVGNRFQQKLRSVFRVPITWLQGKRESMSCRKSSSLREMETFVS
Protocol: (§1) Peptides were purchased from JPT: linear DDRVAIHA (SEQ ID No: 4), dKDRVdCIHC (SEQ ID No: 9), KDRVdCIHC (SEQ ID No: 9), DDRVdCIHC (SEQ ID No: 11), IDRVdCIHC (SEQ ID No: 12), NDRVdCIHC (SEQ ID No: 13), SDRVdCIHC (SEQ ID No: 14), in which dK stands for D-lysine and dC stands for D-cysteine. The AT2 receptor antagonist PD123319 was from Axon Medchem. Studies were performed using the immortal human bronchial epithelial cell line HBE (Cozens A L, et al. 1994 CFTR expression and chloride secretion in polarized immortal human bronchial epithelial cells. Am J Respir Cell Mol Biol 10:38-47). All culture media and supplements, multiwell plates and flasks were from PAA.
(§2) Cell culture. Multi-well plates received 1 ml from a coating solution (for 112 ml: F12 medium 100 ml; bovine serum albumin 10 ml (1 mg/ml); collagen I, Bovine 1 ml (3 mg/ml); human fibronectin 1 ml (1 mg/ml)) and were incubated for 6 hours at 37° C. and 5% CO2. Subsequently the coating solution was discarded and the plates were dried for 2 hours in the laminar flow cabinet. In each 12 well plate 8.10^4 HBE cells were seeded per well followed by incubation for 24 hours at 37° C. and 5% CO2. Cell culture medium was prepared by adding 432.2 ml MEM 199 basic medium to 50 ml […] FCS and 5 ml L-Glutamin (200 mM), 10 ml Penicillin/Streptomycin (10.000 units/ml/10 mg/ml) and 2.8 ml Gentamycin (10 mg/ml). At 85-90% confluency medium was replaced by medium without FCS and growth factors followed by again 24 hours incubation at 37° C. and 5% CO2.
(§3) Erk1 and Erk2 phosphorylation. The medium was removed from each well and was washed once with HBS buffer without calcium and magnesium. The capacity of peptide at 10^−6 M was tested after 20 min preincubation with either 10^−6 M of PD123319 or concomitant controls, followed by washing. Challenges and concomitant controls were performed at 1 ml/well during 10 min. All samples were tested in triplicate. After the challenge 150 μl RIPA buffer (RIPA, TBS, 1% Nonidet P-40, 0.5% sodium deoxycholate, 0.1% SDS, 0.004% sodium azide, 1% PMSF (2 mM final concentration), 1% sodium orthovanadate (1 mM final concentration) and 1% protease inhibitor cocktail) was added to each well. The plates were incubated for 15 minutes at 4° C. The lysed cells were scraped from the surface. The lysate was transferred to 1.5 ml eppendorf cups and centrifuged 5 minutes at 12.700×g to pellet the cell debris. The supernatant was transferred into new cups and of a 5 al sample the total protein content was determined via the DC protein assay according to lowry (Bio-Rad), with BSA used as calibration protein. Protein was separated on gel and blotted with p-ERK mouse monoclonal IgG2a and mouse GAPDH anti-rat IgG1 antibodies and as a second antibody goat anti-mouse IgG-AP. The phosphorylated Erk proteins and GAPDH were stained with BCIP/NBT and quantified relative to GAPDH and total Erk using TotalLab software. Alternatively, total Erk phosphorylation was measured after permeabilization of the non-detached cells.
In this example it is investigated whether or not cAng-(1-7) analogs with an N-terminal extension of two amino acids stimulate the AT2 receptor.
Thioether bridged peptide synthesis and cell culture and measurement of Erk1- and total Erk phosphorylation were essentially as in example 2.

[1] = tested on: extracellular-signal-regulated kinase (ERK) phosphorylation in human bronchial epithelial (HBE) cells; assay: Peptide-induced Erk1/Erk2/total Erk phosphorylation in HBE cells; type: cell-based; conditions: peptide 10^-6 M, 10 min challenge
Protocol: as §1, §2
as §3, with “The lysate was transferred to 1.5 ml eppendorf cups and centrifuged 5 minutes at 12.700×g to pellet the cell debris.” left out, “Protein was separated on gel and blotted with p-ERK mouse monoclonal IgG2a and mouse GAPDH anti-rat IgG1 antibodies and as a second antibody goat anti-mouse IgG-AP.” left out, “cells. […]” for “cells.”

[2] = tested on: precontracted aorta rings; assay: Vasodilation on phenylephrine-precontracted aorta rings (organ bath); design: species or system Sprague Dawley rat; conditions: sub-nM concentration; peptides added cumulatively 0.1 nM to 1 μM; rings precontracted with 30 nM phenylephrine
Protocol: Peptides: KDRVdCIHC (SEQ ID No: 9), and YDRVdCIHC (SEQ ID No: 10) wherein dC stands for D-cysteine were purchased from JPT. Specified pathogen-free male Sprague Dawley rats (SD) (Harlan, Zeist, The Netherlands), weighing […] were used. Prior to the experiment, the animals were housed together with free access of tap water and solid chow (Harlan, Zeist, The Netherlands) in a temperature and humidity controlled room and a 12/12 h light/dark cycle. All protocols described were approved by the University of Groningen Committee for Animal Experimentation.
Thioether-bridged peptides were obtained from the disulfide bridged peptide via base-asisted sulfur extrusion as previously (Galande A K, et al 2003. Biopolymers 71:534-551).
(§4) Vasodilation on precontracted aorta-rings. Arterial rings for organ bath experiments were prepared as described previously (Kluskens L D, et al. 2009. J Pharmacol Exp Ther 328:849-54). Before testing the vasodilating effects of the peptides the rings were precontracted to 50% of their maximum contraction level with 30 nM phenylephrine (PE). The 5,8 thioether bridged peptides KDRV[AIHA]C (SEQ ID No: 3) or YDRV[AIHA]c (SEQ ID No: 5) were added cumulatively in a range of 0.1 nM to 1 μM. Vasodilation data are represented as percentage of relaxation of 30 nM PE contraction.

Mas receptor = target: T2, Mas receptor (Rattus norvegicus, UniProt P12526); assay: Peptide-induced vasodilation of precontracted aorta rings in presence of Mas receptor antagonist D-Pro7-Ang-(1-7); design: species or system Sprague Dawley rat; conditions: D-Pro7-Ang-(1-7) 0.1 μM, 10 min before 30 nM PE
T2 construct: vasodilation in precontracted aorta rings from Sprague Dawley rats; from tissue; host or cells: aorta rings of male Sprague Dawley rats
T2 sequence (P12526 1-324): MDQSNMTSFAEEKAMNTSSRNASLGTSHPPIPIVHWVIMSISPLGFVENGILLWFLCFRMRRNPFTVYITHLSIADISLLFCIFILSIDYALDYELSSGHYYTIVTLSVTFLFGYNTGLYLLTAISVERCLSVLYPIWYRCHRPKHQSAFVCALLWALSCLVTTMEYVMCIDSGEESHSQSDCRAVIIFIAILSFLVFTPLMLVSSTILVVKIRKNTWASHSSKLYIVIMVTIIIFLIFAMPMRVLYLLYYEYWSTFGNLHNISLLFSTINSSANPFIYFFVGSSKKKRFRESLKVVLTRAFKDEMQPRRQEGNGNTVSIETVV
Protocol: as §4
D-Pro7-ang-(1-7), ang-(1-7) with a D-isomer of proline at position 7, which is a Mas-receptor antagonists, was from JPT and purified by HPLC prior to use. This antagonist was used as in Kluskens et al 2009: 10 min before addition of 30 nM PE at a concentration of 0.1 μM. Other materials and methods were as in example 1.

inhibition of peptide-induced ERK1 phosphorylation by PD123319 (AT2 receptor): less
inhibition of peptide-induced ERK2 phosphorylation by PD123319 (AT2 receptor): less or absent
Substance: Asn-Asp-Arg-Val-Abu/Ala-Ile-His-Abu/Ala (NDRVAIHA; not fully specified; thioether bridge (lanthionine); cyclic AT2 receptor antagonist) [N-cAng(1-7)]
interaction with / stimulation of the AT2 receptor (conclusion from PD123319 sensitivity of ERK phosphorylation) (AT2 receptor): did not or hardly interact with the AT2 receptor

inhibition of peptide-induced ERK1 phosphorylation by PD123319 (AT2 receptor): inhibited
inhibition of peptide-induced ERK phosphorylation (ERK1 and ERK2) by PD123319 (AT2 receptor): complete
Substance: Asp-Asp-Arg-Val-Abu/Ala-Ile-His-Abu/Ala (DDRVAIHA; not fully specified; thioether bridge (lanthionine); cyclic AT2 receptor antagonist) [DcAng-(1-7)]
peptide-induced Erk1 phosphorylation [1]: induced Erk1 phosphorylation

inhibition of peptide-induced (total) Erk phosphorylation by PD123319 (AT2 receptor): could not be inhibited
Substance: DDRVAIHA (cyclic AT2 receptor antagonist) [reference compound]
peptide-induced (total) Erk phosphorylation [1]: induced Erk phosphorylation

inhibition of peptide-induced (total) Erk phosphorylation by PD123319 (AT2 receptor): no inhibition at all
Substance: IDDRVAIHA (not fully specified) [reference compound]
peptide-induced (total) Erk phosphorylation [1]: induced Erk phosphorylation

inhibition of peptide-induced ERK1 phosphorylation by PD123319 (AT2 receptor): inhibited
inhibition of peptide-induced ERK phosphorylation (ERK1 and ERK2) by PD123319 (AT2 receptor): complete
Substance: Ile-Asp-Arg-Val-Abu/Ala-Ile-His-Abu/Ala (IDRVAIHA; not fully specified; thioether bridge (lanthionine); cyclic AT2 receptor antagonist) [IcAng-(1-7)]
peptide-induced Erk1 phosphorylation [1]: induced Erk1 phosphorylation

inhibition of peptide-induced ERK phosphorylation (ERK1 and ERK2) by PD123319 (AT2 receptor): complete
inhibition of peptide-induced vasodilation by Mas receptor antagonist D-Pro7 (Mas receptor): does not inhibit
Substance: Lys-Asp-Arg-Val-Abu/Ala-Ile-His-Abu/Ala (KDRVAIHA; not fully specified; thioether bridge (lanthionine); cyclic AT2 receptor antagonist) [KcAng-(1-7), cAng-(1-7) N-terminally extended with Lys]
vasodilation of precontracted aorta rings (percentage of relaxation of 30 nM PE contraction) [2]: significant vasodilating capacity

inhibition of peptide-induced ERK1 phosphorylation by PD123319 (AT2 receptor): less
inhibition of peptide-induced ERK2 phosphorylation by PD123319 (AT2 receptor): did not affect
inhibition of peptide-induced ERK2 phosphorylation by PD123319 (AT2 receptor; listed as Ser): less or absent
Substance: ScAng-(1-7): thioether bridged cAng-(1-7) with Ser at position -1, made from SDRVdCIHC (SEQ ID No: 14) (SDRV[dC]IHC; bridge 5-8; not fully specified (bridges); also: thioether formed from the disulfide precursor by sulfur extrusion)
interaction with / stimulation of the AT2 receptor (conclusion from PD123319 sensitivity of ERK phosphorylation) (AT2 receptor): did not or hardly interact with the AT2 receptor

inhibition of peptide-induced vasodilation by Mas receptor antagonist D-Pro7 (Mas receptor): does not inhibit
Substance: Tyr-Asp-Arg-Val-Abu/Ala-Ile-His-Abu/Ala (YDRVAIHA; not fully specified; thioether bridge (lanthionine); cyclic AT2 receptor antagonist) [YcAng-(1-7), cAng-(1-7) N-terminally extended with Tyr]
vasodilation of precontracted aorta rings (percentage of relaxation of 30 nM PE contraction) [2]: significant vasodilating capacity
